Laboratory results reported in the Human Domainome abundance scans (Beltran et al. 2025).
± gives the uncertainty stated by the source.

B1: TOX high mobility group box family member 3, residues 256 to 323; numbered along this chain, O15405 (parent)
chain: QKPVSAYALFFRDTQAAIKGQNPNATFGEVSKIVASMWDSLGEEQKQVYKRKTEAAKKEYLKALAAYR

Variants of: B1
Experiment: abundance fitness (aPCA) (normalised: wild type 0, dead -1); higher = more abundant; growth selection in yeast, the domain comes from the species named
Details: Homo sapiens
With Q21I the abundance fitness was -0.346 ± 0.084.
In the case of Q21W, the abundance fitness is reported as -0.388 ± 0.089.
Work on Q21Y yielded an abundance fitness of -0.338 ± 0.1.
Variant Q21R has an abundance fitness of 0.042 ± 0.058.
Q21M gave an abundance fitness of -0.199 ± 0.17.
In the case of E29Y, the abundance fitness is reported as -0.372 ± 0.095.
E29F gave an abundance fitness of -0.431 ± 0.14.
In the case of E29S, the abundance fitness is reported as -0.341 ± 0.067.
For E29G, the abundance fitness was -0.959 ± 0.22.
Work on E29W yielded an abundance fitness of -0.158 ± 0.17.
E29A showed an abundance fitness of -0.326 ± 0.09.
Variant Y67L has an abundance fitness of -0.044 ± 0.057.
Y67Q gave an abundance fitness of 0.281 ± 0.17.
For Y67N, the abundance fitness was 0.288 ± 0.076.
Work on Y67R yielded an abundance fitness of 0.306 ± 0.063.
Y67W gave an abundance fitness of -0.158 ± 0.17.
Work on Y67K yielded an abundance fitness of 0.244 ± 0.093.
Work on Y67M yielded an abundance fitness of 0.161 ± 0.082.
Y67A showed an abundance fitness of 0.263 ± 0.077.
Y67I gave an abundance fitness of -0.012 ± 0.073.
K58S gave an abundance fitness of -0.051 ± 0.066.
K58T gave an abundance fitness of -0.079 ± 0.059.
K58A gave an abundance fitness of 0.016 ± 0.045.
For G20F, the abundance fitness was -0.073 ± 0.11.
Variant G20D has an abundance fitness of 0.192 ± 0.11.
G20H gave an abundance fitness of 0.013 ± 0.13.
Variant G20L has an abundance fitness of 0.145 ± 0.052.
Variant G20A has an abundance fitness of 0.129 ± 0.051.
With K46L the abundance fitness was -0.537 ± 0.058.
Work on K46I yielded an abundance fitness of -0.398 ± 0.1.
Variant R68I has an abundance fitness of -0.65 ± 0.22.
R68N gave an abundance fitness of 0.198 ± 0.24.
For R68Y, the abundance fitness was -0.292 ± 0.11.
Variant R68T has an abundance fitness of -0.007 ± 0.078.
Work on E44G yielded an abundance fitness of -0.17 ± 0.06.
In the case of E44K, the abundance fitness is reported as 0.066 ± 0.099.
For E44W, the abundance fitness was -0.515 ± 0.073.
E44M gave an abundance fitness of -0.493 ± 0.096.
For E44Y, the abundance fitness was -0.955 ± 0.25.
Variant E44R has an abundance fitness of -0.359 ± 0.07.
In the case of E44A, the abundance fitness is reported as -0.116 ± 0.051.
Work on E44N yielded an abundance fitness of -0.11 ± 0.13.
With E44I the abundance fitness was -0.613 ± 0.19.
E44L showed an abundance fitness of -0.556 ± 0.062.
E44V showed an abundance fitness of -0.209 ± 0.046.
Work on E44F yielded an abundance fitness of -0.541 ± 0.061.
Work on A65W yielded an abundance fitness of -0.082 ± 0.079.
Variant A65L has an abundance fitness of -0.03 ± 0.056.
In the case of A65N, the abundance fitness is reported as 0.098 ± 0.16.
In the case of A65D, the abundance fitness is reported as 0.078 ± 0.084.
With A65V the abundance fitness was -0.049 ± 0.048.
Variant A65K has an abundance fitness of 0.036 ± 0.081.
Work on A65R yielded an abundance fitness of -0.037 ± 0.059.
Variant A16Y has an abundance fitness of -0.564 ± 0.15.
Work on A16M yielded an abundance fitness of -0.401 ± 0.14.
A16I showed an abundance fitness of -0.071 ± 0.15.
For A16K, the abundance fitness was 0.009 ± 0.067.
In the case of A16L, the abundance fitness is reported as -0.178 ± 0.059.
Work on A16W yielded an abundance fitness of -0.324 ± 0.093.
Variant A16E has an abundance fitness of 0.158 ± 0.076.
For L41Q, the abundance fitness was -0.718 ± 0.2.
In the case of L41E, the abundance fitness is reported as -0.922 ± 0.16.
In the case of L41V, the abundance fitness is reported as -0.29 ± 0.086.
L41A showed an abundance fitness of -0.225 ± 0.068.
For L41G, the abundance fitness was -0.474 ± 0.07.
With L41T the abundance fitness was -0.298 ± 0.13.
Variant Y60V has an abundance fitness of -0.073 ± 0.05.
For Y60G, the abundance fitness was -0.101 ± 0.091.
Y60W showed an abundance fitness of -0.258 ± 0.12.
In the case of Y60K, the abundance fitness is reported as 0.128 ± 0.073.
Variant V30A has an abundance fitness of -0.896 ± 0.28.
V30Y showed an abundance fitness of -0.811 ± 0.17.
Variant V30I has an abundance fitness of 0.014 ± 0.11.
Variant V30H has an abundance fitness of -0.823 ± 0.21.
V30G showed an abundance fitness of -1.04 ± 0.17.
Work on V30E yielded an abundance fitness of -0.453 ± 0.1.
With V30C the abundance fitness was -0.309 ± 0.091.
D39N gave an abundance fitness of -0.217 ± 0.21.
D39L gave an abundance fitness of -0.224 ± 0.042.
Variant D39V has an abundance fitness of -0.262 ± 0.071.
Work on D39G yielded an abundance fitness of -0.21 ± 0.065.
For D39Y, the abundance fitness was -0.231 ± 0.085.
Variant P3Q has an abundance fitness of -0.292 ± 0.096.
Work on P3M yielded an abundance fitness of -0.296 ± 0.096.
In the case of P3G, the abundance fitness is reported as 0.033 ± 0.049.
In the case of P3H, the abundance fitness is reported as -0.068 ± 0.059.
For Y7A, the abundance fitness was -0.498 ± 0.14.
With Y7L the abundance fitness was -0.547 ± 0.075.
Y7S showed an abundance fitness of -0.404 ± 0.076.
Y7Q gave an abundance fitness of -0.212 ± 0.12.
For Y7H, the abundance fitness was -0.199 ± 0.14.
For K52D, the abundance fitness was -0.404 ± 0.078.
Variant K52M has an abundance fitness of -0.373 ± 0.074.
Variant K52C has an abundance fitness of -0.547 ± 0.086.
K52V gave an abundance fitness of -0.584 ± 0.072.
K52P gave an abundance fitness of -0.303 ± 0.079.
In the case of K52T, the abundance fitness is reported as -0.426 ± 0.065.
Variant K52H has an abundance fitness of -0.272 ± 0.066.
With K52I the abundance fitness was -0.652 ± 0.081.
K52F showed an abundance fitness of -0.93 ± 0.17.
I18L showed an abundance fitness of -0.396 ± 0.082.
With I18N the abundance fitness was -0.72 ± 0.41.
In the case of I18A, the abundance fitness is reported as -0.607 ± 0.13.
Variant I18R has an abundance fitness of -0.707 ± 0.12.
In the case of I18F, the abundance fitness is reported as -0.746 ± 0.16.
I18P gave an abundance fitness of -1.03 ± 0.18.
Work on G42V yielded an abundance fitness of -0.59 ± 0.079.
G42F showed an abundance fitness of -1.05 ± 0.32.
L64E gave an abundance fitness of 0.354 ± 0.066.
Variant L64W has an abundance fitness of -0.227 ± 0.08.
L64P showed an abundance fitness of 0.33 ± 0.071.
L64I showed an abundance fitness of 0.146 ± 0.1.
Variant L64G has an abundance fitness of 0.241 ± 0.05.
Variant L64C has an abundance fitness of 0.153 ± 0.066.
Variant W38M has an abundance fitness of -0.416 ± 0.098.
Work on W38E yielded an abundance fitness of -0.653 ± 0.12.
In the case of W38G, the abundance fitness is reported as -0.855 ± 0.12.
With W38T the abundance fitness was -1.28 ± 0.37.
In the case of W38F, the abundance fitness is reported as -0.716 ± 0.2.
In the case of A55E, the abundance fitness is reported as 0.076 ± 0.059.
Variant A55N has an abundance fitness of 0.001 ± 0.063.
A55G showed an abundance fitness of -0.022 ± 0.051.
A55F showed an abundance fitness of -0.211 ± 0.077.
A55R gave an abundance fitness of -0.083 ± 0.046.
Q1Y showed an abundance fitness of 0.123 ± 0.073.
D13C gave an abundance fitness of -0.314 ± 0.091.
D13S gave an abundance fitness of -0.516 ± 0.092.
D13F gave an abundance fitness of -0.494 ± 0.12.
For K2D, the abundance fitness was -0.311 ± 0.14.
K2R showed an abundance fitness of -0.273 ± 0.064.
In the case of K2M, the abundance fitness is reported as -0.335 ± 0.083.
K2S gave an abundance fitness of 0.069 ± 0.05.
For K2Q, the abundance fitness was -0.337 ± 0.14.
K2G gave an abundance fitness of -0.344 ± 0.05.
In the case of N22H, the abundance fitness is reported as 0.037 ± 0.085.
In the case of N22Q, the abundance fitness is reported as -0.182 ± 0.073.
With N22R the abundance fitness was -0.044 ± 0.057.
N22S showed an abundance fitness of -0.451 ± 0.071.
In the case of K62D, the abundance fitness is reported as 0.019 ± 0.078.
Work on K62M yielded an abundance fitness of -0.205 ± 0.057.
For K62W, the abundance fitness was -0.838 ± 0.11.
K62C gave an abundance fitness of -0.3 ± 0.078.
K62P showed an abundance fitness of -0.142 ± 0.05.
K62R showed an abundance fitness of -0.002 ± 0.038.
K62A showed an abundance fitness of -0.022 ± 0.062.
R51A showed an abundance fitness of -0.031 ± 0.049.
Variant R51P has an abundance fitness of -0.225 ± 0.059.
With R51M the abundance fitness was -0.069 ± 0.056.
For R51V, the abundance fitness was -0.072 ± 0.055.
Variant F10L has an abundance fitness of -0.744 ± 0.1.
F10A showed an abundance fitness of -0.981 ± 0.31.
S40P showed an abundance fitness of -1.01 ± 0.16.
Work on S40W yielded an abundance fitness of -0.838 ± 0.15.
For S40H, the abundance fitness was -0.092 ± 0.12.
S40I gave an abundance fitness of 0.435 ± 0.11.
Work on S40Y yielded an abundance fitness of -0.295 ± 0.094.
S40G showed an abundance fitness of 0.009 ± 0.052.
F27R gave an abundance fitness of 0.077 ± 0.047.
Variant F27Y has an abundance fitness of 0.029 ± 0.11.
F27H showed an abundance fitness of 0.182 ± 0.094.
For F27C, the abundance fitness was -0.188 ± 0.095.
F27E showed an abundance fitness of 0.162 ± 0.072.
Variant F27T has an abundance fitness of 0.098 ± 0.069.
A63W showed an abundance fitness of -0.178 ± 0.05.
Work on A63E yielded an abundance fitness of 0.285 ± 0.056.
A63K gave an abundance fitness of 0.173 ± 0.062.
For A63I, the abundance fitness was -0.34 ± 0.076.
